According to the supplement of paper PMC7877785:
± gives the uncertainty stated by the source.

Test: self-splicing fitness, log relative to wild type (ln ratio); higher = more splicing; Tetrahymena group I intron in knt gene, E. coli kanamycin selection, DiMSum; sequences stand for … in CUCUCU…GGAGGGAAAAGUUAUCAGGCAUGCACCUGGUAGCUAGUCUUUAAACCAAUAGAUUGCAUCGGUUUAAAAGGCAAGACCGUCAAAUUGCGGGAAAGGGGUCAACAGCCGUUCAGUACCAAGUCUCAGGGGAAACUUUGAGAUGGCCUUGCAAAGGGUAUGGUAAUAAGCUGACGGACAUGGUCCUAACCACGCAGCCAAGUCCUAAGUCAACAGAUCUUCUGUUGAUAUGGAUGCAGUUCACAGACUAAAUGUCGGUCGGGGAAGAUGUAUUCUUCUCAUAAGAUAUAGUCGGACCUCUCCUUAAUGGGAGCUAGCGGAUGAAGUGAUGCAACACUGGAGCCGCUGGGAACUAAUUUGUAUGCGAAAGUAUAUUGAUUAGUUUUGGAGUACUCGUGGUCG
Method in brief: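 Pooled colonies went to amplicon sequencing on an Illumina HiSeq 2500 after six replicate transformations. The plates were LB agar with 100 μg/mL carbenicillin, 50 μM IPTG and 0.2% rhamnose, with or without 25 μg/mL kanamycin, incubated overnight at 37°C or 30°C. The E. coli BL21(DE3) library had all eight P1ex-region intron nucleotides randomised, the intron placed in the knt kanamycin-resistance gene on pET-22b(+). DiMSum fitness is the error-weighted combination of replicate fold changes, kanamycin against none, normalised to wild type.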

Row | Sequence | self-splicing fitness (ln) (30 °C) | self-splicing fitness (ln) (37 °C)
1 | AGCUAGCAAUAUUACGCUUC | -3.25 ± 0.3 | -2.65 ± 0.28
2 | AGCUAGCAAUAUUACGGAGU | -2.94 ± 0.22 | -2.18 ± 0.24
3 | AGCUAGCAAUAUUACGGAUU | -1.3 ± 0.097 | -1 ± 0.13
4 | AGCUAGCAAUAUUACGGGGC | -3.25 ± 0.19 | -2.5 ± 0.21
5 | AGCUAGCAAUAUUACGGGUC | -2.59 ± 0.17 | -1.7 ± 0.15
6 | AGCUAGCAAUAUUACGGGUG | -1.04 ± 0.068 | -0.416 ± 0.087
7 | AGCUAGCAAUAUUACGUACG | -1.85 ± 0.07 | -1.21 ± 0.081
8 | AGCUAGCAAUAUUACGUCAC | – | -2.69 ± 0.29
9 | AGCUAGCAAUAUUACGUCGU | -1.38 ± 0.1 | -1.4 ± 0.14
10 | AGCUAGCAAUAUUACGUGAC | -3.94 ± 0.18 | -1.26 ± 0.13
11 | AGCUAGCAAUAUUACGUGUC | -3.35 ± 0.18 | -1.63 ± 0.14
12 | AGCUAGCAAUAUUACGUUUU | -2.36 ± 0.14 | -2.18 ± 0.16
13 | AGGAAGCAAUAUUACGAACC | -0.283 ± 0.29 | -0.131 ± 0.3
14 | AGGAAGCAAUAUUACGACAC | -1.94 ± 0.12 | -1.74 ± 0.12
15 | AGGAAGCAAUAUUACGACUU | 0.00163 ± 0.064 | -0.239 ± 0.084
16 | AGGAAGCAAUAUUACGAGAU | -4.23 ± 0.26 | -1.1 ± 0.13
17 | AGGAAGCAAUAUUACGAGCA | -1.91 ± 0.17 | -1.7 ± 0.17
18 | AGGAAGCAAUAUUACGAUAA | -1.9 ± 0.21 | -1.33 ± 0.29
19 | AGGAAGCAAUAUUACGAUGA | -0.649 ± 0.13 | -0.773 ± 0.17
20 | AGGAAGCAAUAUUACGCGAG | -1.55 ± 0.13 | -1.31 ± 0.15
21 | AGGAAGCAAUAUUACGCGCG | -0.598 ± 0.21 | -0.0648 ± 0.26
22 | AGGAAGCAAUAUUACGCGGA | -2.32 ± 0.22 | -1.29 ± 0.17
23 | AGGAAGCAAUAUUACGCGUC | -3.99 ± 0.33 | -2.24 ± 0.24
24 | AGGAAGCAAUAUUACGCUGC | -3.38 ± 0.43 | –
25 | AGGAAGCAAUAUUACGGCGA | -0.209 ± 0.097 | -0.301 ± 0.13

Row | Sequence | self-splicing fitness (ln) (30 °C) | self-splicing fitness (ln) (37 °C)
26 | AGGAAGCAAUAUUACGGCUG | -0.459 ± 0.13 | -0.0568 ± 0.15
27 | AGGAAGCAAUAUUACGGGUC | -3 ± 0.32 | -2.31 ± 0.29
28 | AGGAAGCAAUAUUACGGUCA | -0.983 ± 0.086 | 0.202 ± 0.091
29 | AGGAAGCAAUAUUACGGUCG | -0.601 ± 0.1 | 0.213 ± 0.14
30 | AGGAAGCAAUAUUACGGUGA | -2.15 ± 0.09 | -1.23 ± 0.088
31 | AGGAAGCAAUAUUACGGUUU | -2.13 ± 0.085 | -0.557 ± 0.1
32 | AGGAAGCAAUAUUACGUACA | -1.08 ± 0.065 | -0.404 ± 0.088
33 | AGGAAGCAAUAUUACGUACU | -1.76 ± 0.12 | -0.989 ± 0.19
34 | AGGAAGCAAUAUUACGUAGC | – | -1.62 ± 0.28
35 | AGGAAGCAAUAUUACGUGAA | -2.53 ± 0.35 | -1.97 ± 0.24
36 | AGGAAGCAAUAUUACGUUAA | -3.22 ± 0.18 | -1.72 ± 0.12
37 | AGGAAGCAAUAUUACGUUUC | -3.65 ± 0.33 | -1.86 ± 0.36
38 | AGGCAGCAAUAUUACGAAGA | -1.96 ± 0.29 | -1.12 ± 0.18
39 | AGGCAGCAAUAUUACGAAUG | -1.83 ± 0.17 | -1.73 ± 0.2
40 | AGGCAGCAAUAUUACGACCC | -0.357 ± 0.31 | -0.702 ± 0.5
41 | AGGCAGCAAUAUUACGACCG | 0.153 ± 0.071 | 0.0303 ± 0.085
42 | AGGCAGCAAUAUUACGACGU | -0.0258 ± 0.11 | 0.539 ± 0.087
43 | AGGCAGCAAUAUUACGAGGC | -3.43 ± 0.29 | -1.67 ± 0.22
44 | AGGCAGCAAUAUUACGAGUG | -3.63 ± 0.28 | -1.96 ± 0.18
45 | AGGCAGCAAUAUUACGAUAA | -1.82 ± 0.11 | -2.3 ± 0.16
46 | AGGCAGCAAUAUUACGAUUG | -3.13 ± 0.17 | -2.4 ± 0.22
47 | AGGCAGCAAUAUUACGCUUG | -2.81 ± 0.17 | -2.12 ± 0.23
48 | AGGCAGCAAUAUUACGGCAG | -1.29 ± 0.1 | -0.578 ± 0.12
49 | AGGCAGCAAUAUUACGGGCC | -2.17 ± 0.29 | -1.52 ± 0.26
50 | AGGCAGCAAUAUUACGGGGA | – | -3.03 ± 0.23

Row | Sequence | self-splicing fitness (ln) (30 °C) | self-splicing fitness (ln) (37 °C)
51 | AGGCAGCAAUAUUACGGUAC | -3.68 ± 0.21 | -2.65 ± 0.2
52 | AGGCAGCAAUAUUACGGUGU | -2.38 ± 0.13 | -1.73 ± 0.15
53 | AGGCAGCAAUAUUACGUAAA | -2 ± 0.085 | -0.673 ± 0.099
54 | AGGCAGCAAUAUUACGUAUC | -2.26 ± 0.16 | -0.296 ± 0.12
55 | AGGCAGCAAUAUUACGUCUU | -4.07 ± 0.25 | -2.58 ± 0.19
56 | AGGCAGCAAUAUUACGUGUG | -2.98 ± 0.11 | -1.44 ± 0.096
57 | AGGCAGCAAUAUUACGUUAU | -1.78 ± 0.08 | -1.78 ± 0.11
58 | AGGCAGCAAUAUUACGUUCA | -0.538 ± 0.08 | -0.117 ± 0.13
59 | AGGGAGCAAUAUUACGAAAU | -3.18 ± 0.35 | -1.22 ± 0.24
60 | AGGGAGCAAUAUUACGACCA | -1.14 ± 0.18 | -0.171 ± 0.19
61 | AGGGAGCAAUAUUACGACUU | -1.41 ± 0.18 | 0.0129 ± 0.18
62 | AGGGAGCAAUAUUACGAGUA | -2.7 ± 0.31 | -1.76 ± 0.2
63 | AGGGAGCAAUAUUACGCAUA | -2.22 ± 0.2 | -2.63 ± 0.33
64 | AGGGAGCAAUAUUACGCUAA | – | -2.1 ± 0.49
65 | AGGGAGCAAUAUUACGCUCA | -1.16 ± 0.11 | -1.14 ± 0.13
66 | AGGGAGCAAUAUUACGCUGC | -3.96 ± 0.29 | -2.35 ± 0.23
67 | AGGGAGCAAUAUUACGGACA | -2.85 ± 0.35 | -2.56 ± 0.29
68 | AGGGAGCAAUAUUACGGAGG | – | -1.74 ± 0.43
69 | AGGGAGCAAUAUUACGGGUA | -3.37 ± 0.21 | -2.64 ± 0.17
70 | AGGGAGCAAUAUUACGGUAC | -2.99 ± 0.31 | -2.67 ± 0.3
71 | AGGGAGCAAUAUUACGGUCU | -1.67 ± 0.21 | -0.696 ± 0.21
72 | AGGGAGCAAUAUUACGUCAU | -3.06 ± 0.28 | -2.74 ± 0.31
73 | AGGGAGCAAUAUUACGUGAG | -3.15 ± 0.26 | -2.56 ± 0.24
74 | AGGGAGCAAUAUUACGUGCU | -3.8 ± 0.3 | -1.92 ± 0.25
75 | AGGGAGCAAUAUUACGUGGU | – | -3.13 ± 0.4

Row | Sequence | self-splicing fitness (ln) (30 °C) | self-splicing fitness (ln) (37 °C)
76 | AGGGAGCAAUAUUACGUUGA | – | -2.8 ± 0.24
77 | AGGGAGCAAUAUUACGUUGU | -3.01 ± 0.18 | -2.9 ± 0.2
78 | AGGUAGCAAUAUUACGAACC | -0.58 ± 0.025 | -0.294 ± 0.041
79 | AGGUAGCAAUAUUACGAGAG | -3.887 ± 0.03 | -2.71 ± 0.039
80 | AGGUAGCAAUAUUACGAGGU | -3.749 ± 0.029 | -2.49 ± 0.039
81 | AGGUAGCAAUAUUACGAUCC | -0.0773 ± 0.022 | 0.212 ± 0.039
82 | AGGUAGCAAUAUUACGAUCG | -0.106 ± 0.015 | 0.121 ± 0.035
83 | AGGUAGCAAUAUUACGAUGG | -3.633 ± 0.029 | -2.57 ± 0.042
84 | AGGUAGCAAUAUUACGCAAA | -2.317 ± 0.023 | -1.37 ± 0.035
85 | AGGUAGCAAUAUUACGCCGA | -0.983 ± 0.019 | -0.334 ± 0.034
86 | AGGUAGCAAUAUUACGCCUU | -4.13 ± 0.038 | -2.87 ± 0.048
87 | AGGUAGCAAUAUUACGCUAC | -3.78 ± 0.047 | -2.71 ± 0.059
88 | AGGUAGCAAUAUUACGGCGG | -1.955 ± 0.016 | -1.11 ± 0.034
89 | AGGUAGCAAUAUUACGGCUG | -1.13 ± 0.016 | -1 ± 0.037
90 | AGGUAGCAAUAUUACGGGUC | -3.64 ± 0.03 | -2.96 ± 0.046
91 | AGGUAGCAAUAUUACGGUUA | -0.977 ± 0.016 | -0.509 ± 0.033
92 | AGGUAGCAAUAUUACGGUUU | -0.613 ± 0.012 | -0.252 ± 0.033
93 | AGGUAGCAAUAUUACGUAAU | -1.908 ± 0.015 | -0.958 ± 0.034
94 | AGGUAGCAAUAUUACGUAGU | -3.123 ± 0.017 | -1.62 ± 0.033
95 | AGGUAGCAAUAUUACGUCUG | -0.641 ± 0.013 | -0.161 ± 0.033
96 | AGUAAGCAAUAUUACGAACG | -0.785 ± 0.14 | -0.209 ± 0.18
97 | AGUAAGCAAUAUUACGACAC | -1.58 ± 0.19 | -0.792 ± 0.17
